From patent publication US20140314784A1 (MEDLMMUNE, published 2014)
Residue numbers refer to the chain shown, from its start.

T1: human CXCR3 (human, UniProt P49682 1-368)
T1 construct: whole, on cells
T1 sequence (looked up): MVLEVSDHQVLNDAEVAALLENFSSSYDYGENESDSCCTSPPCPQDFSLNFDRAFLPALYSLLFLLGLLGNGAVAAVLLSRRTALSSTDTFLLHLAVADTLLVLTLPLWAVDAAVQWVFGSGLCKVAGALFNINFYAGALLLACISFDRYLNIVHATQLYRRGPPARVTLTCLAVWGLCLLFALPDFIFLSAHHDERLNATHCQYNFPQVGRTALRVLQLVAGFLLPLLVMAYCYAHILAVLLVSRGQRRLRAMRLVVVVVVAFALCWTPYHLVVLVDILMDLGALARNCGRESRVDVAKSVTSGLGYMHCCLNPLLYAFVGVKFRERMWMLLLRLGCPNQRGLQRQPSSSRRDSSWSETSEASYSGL

T2: CCR4 (human, UniProt P51679 1-360)
T2 construct: whole, on cells
T2 sequence (looked up): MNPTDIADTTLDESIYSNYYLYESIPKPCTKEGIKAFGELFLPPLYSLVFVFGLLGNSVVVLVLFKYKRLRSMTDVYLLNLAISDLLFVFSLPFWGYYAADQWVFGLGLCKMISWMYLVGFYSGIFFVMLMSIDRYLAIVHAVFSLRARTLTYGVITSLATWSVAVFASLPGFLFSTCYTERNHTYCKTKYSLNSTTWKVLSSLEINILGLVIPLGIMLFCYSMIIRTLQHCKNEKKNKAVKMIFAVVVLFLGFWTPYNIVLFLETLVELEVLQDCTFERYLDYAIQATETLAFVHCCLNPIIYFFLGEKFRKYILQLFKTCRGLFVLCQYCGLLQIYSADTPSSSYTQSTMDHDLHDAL

B1: 6C7 IgG1TM (antibody, V domains shown)
VH: QVQLVESGGGVVQPGRSLRLSCAASGFTFSNYVMHWVRQAPGKGLEWVAVIWYDGSNKYYADSVKGRFTISRDNSKNTLSLQMNSLRAEDTAVYYCERGEGYYGSGSRYRGYYYGMDVWGQGTTVTVSS
VL: DIQMTQSPSSLSASVGDRVTITCRASQGIRTDLGWYQQKPGKAPKRLIYAASSLQSGVPSRFSGSGSGTEFTLTISSLQPEDFATYYCLQHNSYPRTFGQGTKVEIKR
notes: 6C7 variable domains on a variant IgG1 Fc (IgG1 TM); also called 6C7-TM; Anti-CXCR4 IgG1 TM
B2: 6C7 (antibody, V domains shown)
VH: B1 VH
VL: DIQMTQSPSSLSASVGDRVTITCRASQGIRTDLGWYQQKPGKAPKRLIYAASSLQSGVPSRFSGSGSGTEFTLTISSLQPEDFATYYCLQHNSYPRTFGQGTKVEIK
notes: Fully human monoclonal antibody from XenoMouse hybridoma; also called antibody 6C7; mAb 6C7
B3: 4C1 (antibody, V domains shown)
VH: QVQLVESGGGVVQPGRSLRLSCAASGFTFSSYGMHWVRQAPGKGLEWVAVISYDGSNKYYADSVKGRFTISRDNSKNTLYLQMNSLRAEDTAVYYCTRGGLAARRNYYYSYGMDVWGQGTTVTVSS
VL: B2 VL with G28D, T31N, E70Q, R96L, Q100G, E105Q
notes: Fully human monoclonal antibody from XenoMouse hybridoma (strains XMG2 IgG2 or XMG4 IgG4, kappa/lambda); Tested as hybridoma supernatant or purified antibody; also called mAb 4C1; Mab4C1
B4: 7C8 (antibody, V domains shown)
VH: QVQLVESGGGVVQPGRSLRLSCAASGFTFSSYGMHWVRQAPGKGLEWVAVIWYDGTYKYYADSVRGRFTISRDNSKNTLYLQMNSLRAEDTAVYYCARGPLLRYFDWLSDYWGQGTLVTVSS
VL: B2 VL with T31N, S52T, S93N, Q100G
notes: Fully human monoclonal antibody from XenoMouse hybridoma
B5: 2A4 (antibody, V domains shown)
VH: B3 VH with M113T
VL: B2 VL with G28D, T31N, K45T, E70Q, R96L, Q100G, E105Q
notes: Fully human monoclonal antibody from XenoMouse hybridoma; also called mAb 2A4; Mab2A4
B6: 5E1 (antibody, V domains shown)
VH: EVQLLESGGGLVQPGGSLRLSCAASGFTFSSFAMNWVRQAPGKGLEWVSAISGSGGNIYYADSVRGRFTISRDNSKNTLYLQMNSLRAEDTAVYYCAKVDRNLGYYHGMDVWGQGTTVTVSS
VL: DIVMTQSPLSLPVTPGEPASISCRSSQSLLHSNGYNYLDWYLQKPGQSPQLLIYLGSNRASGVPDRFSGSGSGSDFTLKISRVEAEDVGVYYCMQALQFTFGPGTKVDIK
notes: as for B4
B7: 5C9 (antibody, V domains shown)
VH: QVQLVESGGGVVQPGRSLRLSCAASGFTFSSYGLHWVRQSPGKGLEWVAVISYDGSKKYYADSVKGRFSISRDNSKNTLYLQMNSLRAEDTAVYYCARDRPSRYSSCMDVWGQGTTVTVSS
VL: QSALTQPASVSGSPGQSITISCTGTSSDVGSNNFVSWYQQHPGKAPKLMIYEVSKRPSGVSNRFSGSKSGNTASLTISGLQAEDEADYYCCSYAGSNTLVFGGGTKLTVL
notes: Fully human monoclonal antibody from XenoMouse hybridoma (lambda light chain)

Molecular target: T3, cynomolgus monkey CXCR4 (cynomolgus monkey, UniProt Q28474 1-352)
T3 construct: whole, on cells; On transiently transfected HEK293T cells or endogenous on the cynomolgus T-cell line HSC-F; also called Cynomolgus CXCR4
T3 sequence (Q28474 whole entry): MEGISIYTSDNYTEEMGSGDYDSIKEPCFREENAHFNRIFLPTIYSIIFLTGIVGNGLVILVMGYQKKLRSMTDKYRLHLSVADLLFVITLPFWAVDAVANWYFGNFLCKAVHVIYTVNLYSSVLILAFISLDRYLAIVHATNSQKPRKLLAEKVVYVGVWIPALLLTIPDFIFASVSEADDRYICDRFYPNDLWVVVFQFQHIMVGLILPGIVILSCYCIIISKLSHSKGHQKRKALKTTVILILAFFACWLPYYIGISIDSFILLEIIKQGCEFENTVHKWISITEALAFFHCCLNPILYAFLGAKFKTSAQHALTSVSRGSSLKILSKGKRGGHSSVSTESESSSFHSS
Assay: FACS binding titration on HSC-F cells (cyno CXCR4), Kinexa model fit

Kd [nM] | Binder
0.221 | B1

Molecular target: T3, cynomolgus monkey CXCR4
Assay: Kinexa-based on-cell affinity (FACS) on cynomolgus T-cell line HSC-F

Kd [nM] | Binder
0.221 | B2

Molecular target: T1, human CXCR3
Assay: FACS on human CXCR3 transfected HEK293 cells, parental cells as control
Method: (§1) CXCR4 is a GPCR, with few close homologues in the family of human GPCRs. Among these are CXCR3 and CCR4. […] The samples were analyzed on a FACS Caliber cytometer.

binding result | Binder
no binding (tested: 10 and 100 ug/ml) | B3
no binding (tested: 10 and 100 ug/ml) | B2
no binding (tested: 10 and 100 ug/ml) | B4
no binding (tested: 10 and 100 ug/ml) | B5

Molecular target: T4, human CXCR4 (human, UniProt P61073 1-352)
T4 construct: also called CXCR4 receptor; C-X-C chemokine receptor type 4
T4 sequence (P61073 whole entry): as the sequence (Q28474 whole entry) above, with I24M, H35N, R38K, K146R, S176N counted along it
Assay: FMAT, hybridoma supernatant on HEK293T cells transiently overexpressing full-length human CXCR4
Method: (§2) Supernatants collected from harvested cells were tested to assess the ability of the secreted antibodies to bind to HEK293T cells transiently overexpressing either full-length human, murine or cynomolgus monkey CXCR4. […] Cells diluted in PBS containing 2% FBS were seeded at a density of 3000 expressing and 15000 mock transfected cells per well in 384 well plates (Corning Costar, catalog #3712). Immediately after plating, 15 or 20 μl/well of hybridoma supernatants and 10 μl/well of secondary antibody (Goat anti-human IgG Fc Cy5, final concentration 750 ng/ml) were added and plates incubated for 3 hours at room temperature prior to reading the fluorescence on the FMAT 8200 instrument (Applied Biosystems). The product of number of positive events and fluorescence intensity was used as a measure of binding strength.

Count | FL1 | FL1 x count | Binder
183 | 8330 | 1.52e+06 | B3
199 | 7990 | 1.59e+06 | B2
184 | 7940 | 1.46e+06 | B4
89 | 8370 | 745000 | B5
213 | 7750 | 1.65e+06 | B6
233 | 8800 | 2.05e+06 | B7

Molecular target: T4, human CXCR4
Assay: cell-based or functional assay

Inhibition of pMAPK Signaling IC50 (nM), Jurkat, ELISA [nM] | Binder
3.1 | B1

Molecular target: T5, mouse CXCR4 (mouse, UniProt P70658 1-359)
T5 construct: Full-length murine CXCR4 on transiently transfected HEK293T cells; also native on mouse lymphocytes and the EL4 line; also called murine CXCR4
T5 sequence (P70658 whole entry): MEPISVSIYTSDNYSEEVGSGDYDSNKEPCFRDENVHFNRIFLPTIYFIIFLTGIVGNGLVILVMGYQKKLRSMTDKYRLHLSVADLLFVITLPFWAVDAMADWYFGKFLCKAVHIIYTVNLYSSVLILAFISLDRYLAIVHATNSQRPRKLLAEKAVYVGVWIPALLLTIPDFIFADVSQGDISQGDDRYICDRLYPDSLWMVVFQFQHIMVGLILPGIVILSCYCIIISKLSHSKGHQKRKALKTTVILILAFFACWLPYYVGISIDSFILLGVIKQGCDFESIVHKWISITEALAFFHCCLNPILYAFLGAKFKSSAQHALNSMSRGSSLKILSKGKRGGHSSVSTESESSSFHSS
Assay: FMAT, hybridoma supernatant on HEK293T cells transiently overexpressing full-length mouse CXCR4
Method: as §2

Count | FL1 | FL1 x count | Binder
5 | 1490 | 7440 | B3
9 | 2400 | 21600 | B4
3 | 954 | 2860 | B5
72 | 4780 | 344000 | B7

Molecular target: T5, mouse CXCR4
Assay: FMAT, hybridoma supernatant on HEK293T cells transiently overexpressing mouse CXCR4
Method: as §2

binding result | Binder
no binding | B7

Molecular target: T4, human CXCR4
Assay: FACS competition on formalin-fixed Namalwa cells: 10 nM biotinylated SDF-1 bound first, then displaced by 6C7; streptavidin-PE readout

IC50 [nM] | IC50 (read off the curve) [nM] | Binder
0.123 | ~0.1 | B2

Molecular target: T4, human CXCR4
Assay: cell-based or functional assay
Remark: another data set of the same source

Jurkat chemotaxis inhibition IC50 pM [pM] | Jurkat chemotaxis inhibition IC50 [mg/L] | Binder
1220 | 0.182 | B3
74.7 | 0.0112 | B2
1570 | 0.236 | B4
383 | 0.0574 | B5
14200 | 2.12 | B6
28200 | 4.22 | B7

Molecular target: T4, human CXCR4
Assay: FACS, hybridoma supernatant pre-incubated with human CXCR4 transfected HEK293T cells, competitor Alexa-647 SDF-1

% Inhibition of SDF-1 binding [%] | Binder
35 | B3
88 | B2
75 | B4
42 | B5
1 | B6
-1 | B7

Molecular target: T4, human CXCR4
Assay: cell-based or functional assay
Remark: another data set of the same source

% Inhibition 1 hr (Jurkat chemotaxis) [%] | % Inhibition 24 hr (Jurkat chemotaxis) [%] | Binder
81.3 | -27 | B3
99.6 | 95 | B2
48.3 | -34 | B4
98 | 76 | B5
70 | -20 | B6
74 | 44 | B7

Molecular target: T4, human CXCR4
Assay: FACS binding titration on Namalwa cells (human CXCR4), Kinexa model fit

Kd [nM] | Binder
0.768 | B1

Molecular target: T2, CCR4
Assay: FACS on CCR4 transfected CHO cells, parental cells as control
Method: as §1

binding result | Binder
no binding (tested: 10 and 100 ug/ml) | B3
no binding (tested: 10 and 100 ug/ml) | B2
no binding (tested: 10 and 100 ug/ml) | B4
no binding (tested: 10 and 100 ug/ml) | B5

Molecular target: T4, human CXCR4
Assay: cell-based or functional assay
Remark: another data set of the same source

Jurkat chemotaxis inhibition IC50 [nM] | Binder
0.068 | B2
0.193 | B1

Molecular target: T4, human CXCR4
Assay: FACS binding under antigen limiting conditions on Jurkat cells, Kinexa software fit; experiment 1
Method: (§3) FACS binding under antigen limiting conditions was utilized to estimate the affinities of antibodies to the CXCR4 receptor. Jurkat cells were washed in RPMI1640 medium and plated at 50,000 cells per well in duplicate for incubation with 4-fold dilution series of antibody in duplicate, ranging between 150,000 and 0.143 pM. Incubation was carried out at 4° C. overnight, followed by wash step (3 times in PBS) and staining with Goat anti-human Fc−Cy5 secondary antibody+5 μg/mL 7-Amino-Actinomycin (7AAD) for 40 minutes at 4° C. Samples were analyzed on a FACSCaliber following another round of 3 washes in PBS. […] The negative geo mean was entered into Kinexa analysis software as an estimate of antibody “depletion” under limited antigen conditions, and the equilibrium dissociation constant (KD) was estimated from the curve fit.

Kd [nM] | Binder
0.242 | B2

Molecular target: T4, human CXCR4
Assay: FACS binding under antigen limiting conditions on Jurkat cells, Kinexa software fit
Method: as §3

Kd [nM] | Binder
2.2 | B3
0.363 | B4
0.82 | B5
0.045 | B6

Molecular target: T3, cynomolgus monkey CXCR4
Assay: FMAT, hybridoma supernatant on HEK293T cells transiently overexpressing full-length cynomolgus CXCR4
Method: as §2

Count | FL1 | FL1 x count | Binder
46 | 6360 | 293000 | B3
125 | 3470 | 434000 | B2
137 | 4680 | 642000 | B4
89 | 6740 | 600000 | B5
130 | 12900 | 1.68e+06 | B6
106 | 7320 | 776000 | B7

Molecular target: T4, human CXCR4
Assay: FACS binding under antigen limiting conditions on Jurkat cells, Kinexa software fit; experiment 2
Method: as §3

Kd [nM] | Binder
0.768 | B2
